From article PMC2172693

Molecular target: tetramethylrhodamine isothiocyanate-labeled actin (UniProt P68139)
Assay: optical trap

step duration (τon) [ms] | Substance
104 | wild-type smooth muscle heavy meromyosin (from UniProt P10587;P02607) (complex)
106 | heterodimeric heavy meromyosin with one wild-type head and one E470A head (from UniProt P10587;P02607) (complex)
189 | single-headed subfragment-1 with neonatal epitope tag at its COOH terminus (from UniProt P10587;P02607) (complex)
